Test results published in article doi:10.1101/2022.01.05.475064.
Where a chain is given by its changes, count along the chain named.

T1: NtHY5 (6xHis-HY5) (Nicotiana tabacum, UniProt A0A1S3YJY6 1-158)
T1 sequence: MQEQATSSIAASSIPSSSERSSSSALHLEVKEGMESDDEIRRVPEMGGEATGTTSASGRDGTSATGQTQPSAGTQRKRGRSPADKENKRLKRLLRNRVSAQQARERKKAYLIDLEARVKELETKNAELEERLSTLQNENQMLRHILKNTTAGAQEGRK

B1: NtPMT P2 (G-BOX II) (dsDNA)
DNA 1: TACTGTTTCCGCAACGTGCTCTTCATCAGG
DNA 2: CCTGATGAAGAGCACGTTGCGGAAACAGTA
B2: NtPMT P1 (G-BOX I) (dsDNA)
DNA 1: CAGTCTAACCATGCACGTTGTAATGATTTT
DNA 2: AAAATCATTACAACGTGCATGGTTAGACTG
B3: NtQPT Mut P1 (dsDNA)
DNA 1: CATAAATAAAATTCATTCAGCTACTAAAAC
DNA 2: GTTTTAGTAGCTGAATGAATTTTATTTATG
B4: NtPMT Mut P2 (G-mut II) (dsDNA)
DNA 1: B1 DNA 1 with C15T, G16C, G18T
DNA 2: B1 DNA 2 with C13A, C15G, G16A
B5: NtMYB12 P1 (G-BOX I) (dsDNA)
DNA 1: AACTTGAAATAATACGTTAAAAGATAAAA
DNA 2: TTTTATCTTTTAACGTATTATTTCAAGT
B6: NtMYB12 P2 (G-BOX II) (dsDNA)
DNA 1: AGTCAACTTTGCAACGTAAAAGTCCACACA
DNA 2: TGTGTGGACTTTTACGTTGCAAAGTTGACT
B7: NtQPT P1 (G-BOX I) (dsDNA)
DNA 1: CATAAATAAAACGTGTTCAGCTACTAAAAC
DNA 2: GTTTTAGTAGCTGAACACGTTTTATTTATG
B8: NtODC P1 (G-BOX I) (dsDNA)
DNA 1: ATCTGATCACCTAACGTGACCAAGAAAATA
DNA 2: TATTTTCTTGGTCACGTTAGGTGATCAGAT
B9: NtPMT Mut P1 (G-mut I) (dsDNA)
DNA 1: CAGTCTAACCATGATTAATGTAATGATTTT
DNA 2: AAAATCATTACATTAATCATGGTTAGACTG
B10: NtODC Mut P1 (dsDNA)
DNA 1: B8 DNA 1 with C15T, G16A, G18C
DNA 2: B8 DNA 2 with C13G, C15T, G16A

target: T1, NtHY5 (6xHis-HY5); assay: EMSA

Does B1 bind?
Result: binds

Does B2 bind?
Result: binds

Does B3 bind?
Result: no binding

Does B4 bind?
Result: no binding

Does B5 bind?
Result: binds

Does B6 bind?
Result: binds

Does B7 bind?
Result: binds

Does B8 bind?
Result: binds

Does B9 bind?
Result: no binding

Does B10 bind?
Result: no binding
